Assay results reported in patent publication US20050153923A1, “Targeted drug delivery using EphA2 or EphA4 binding moieties” (priority 2003, published 2005).
Entries after “also recorded” stand apart in the source; their conditions may differ.

Assays:
[1] = target: T1, EphA2-Fc (Homo sapiens, UniProt P29317); experiment: Competitive ELISA: inhibition of labeled EA2 binding to EphA2-Fc; settings: unlabeled antibody, increasing concentrations; FIG. 1
T1 construct: consisted of the extracellular domain of human EphA2 linked to human immunoglobulin
Protocol: The ability of labeled EA2 monoclonal antibody to bind EphA2-Fc was assayed by competitive ELISA in presence of either unlabeled monoclonal antibodies EA2 or Eph099B-208.261. Ratios of unlabeled to labeled antibody used in the assay are indicated on the x-axis.
Supernatants from bulk culture hybridomas were screened for immunoreactivity against EphA2 (Table 9, column 4) using standard molecular biological techniques (e.g., ELISA immunoassay). Supernatants were further screened for the ability to inhibit an EphA2 monoclonal antibody (EA2; ATCC deposit no. PTA-4380; see co-pending U.S. patent application Ser. No. 10/436,783, entitled “EphA2 Agonistic Monoclonal Antibodies and Methods of Use Thereof” filed May 12, 2003) from binding to EphA2. […] Additionally, many of the other antibodies could inhibit EA2 binding to EphA2 as well (Table 9, column 3).

[2] = system: EphA2; experiment: EphA2 tyrosine phosphorylation in MDA-MB-231 cells (IP/Western blot); type: cell-based; settings: MDA-MB-231 monolayers; single dose 5 μg/ml, 37° C.
Protocol: Monolayers of MDA-MB-231 cells were incubated in the presence of a single dose of 5 μg/ml (A, C) Eph099B-208.261 or (B, D) EA2 for the indicated time at 37° C. Cell lysates were then immunoprecipitated with an EphA2-specific antibody, resolved by SDS-PAGE and subjected to Western blot analysis with a phosphotyrosine-specific antibody (A, B). The membranes were stripped and re-probed with the EphA2-specific antibody used in the immunoprecipitation as a loading control (C, D).
(§1) Monolayers of MDA-MB-231 cells were incubated in the presence of a single dose of 5 μg/ml Eph099B-233.152 at 37° C. Cell lysates were then immunoprecipitated with D7 (an EphA2-specific antibody), resolved by SDS-PAGE and subjected to Western blot analysis with (A) a phosphotyrosine-specific antibody or (B) an EphA2-specific antibody.
EphA2 antibodies promoted tyrosine phosphorylation and degradation of EphA2 in MDA-MB-231 cells. Monolayers of cells were incubated in the presence of EphA2 agonistic antibodies or control at 37° C. […]
(§2) Western blot analyses and immunoprecipitations were performed as described previously (Zantek et al., 1999, Cell Growth Diff. 10: 629-38, which is incorporated by reference in its entirety). […] Antibody binding was detected by enhanced chemiluminescence (Pierce, Rockford, Ill.) and autoradiography (Kodak X-OMAT; Rochester, N.Y.).

[3] = system: EphA2; experiment: EphA2 degradation / protein level in MDA-MB-231 cells (Western blot); type: cell-based; settings: MDA-MB-231 monolayers; single dose 5 μg/ml, 37° C.
Protocol: Monolayers of MDA-MB-231 cells were incubated in the presence of a single dose of 5 μg/ml (A, C) Eph099B-208.261 or (B, D) EA2 for the indicated time at 37° C. Cell lysates were then resolved by SDS-PAGE and subjected to Western blot analysis with an EphA2-specific antibody (A, B).
as §1
Monolayers of MDA-MB-231 cells were incubated in the presence of EphA2 agonistic antibodies at 37° C. Cell lysates were then resolved by SDS-PAGE and subjected to Western blot analysis with an EphA2-specific antibody (D7). […] Decreased EphA2 expression is due, in part, to deceased mRNA expression levels in response to EphA2 protein degradation caused by agonistic antibody binding (data not shown).
as §2

[4] = target: T1, EphA2-Fc; experiment: BIACORE surface plasmon resonance Koff measurement on immobilized EphA2-Fc; type: binding; settings: FIG. 15
Source text: FIG. 15: Kinetic analysis of EphA2 monoclonal antibodies. BIACORE™ (surface plasmon resonance-based) assays were used to assay the kinetics of EphA2 monoclonal antibody binding to immobilized EphA2-Fc.
The surface plasmon resonance-based BIACORE™ assay was used to measure the Koff rates of the monoclonal antibodies of the invention. IgG present in the hybridoma supernatant was used for measurement. Antibodies with Koff rates of approximately less than 3×10^−3 s^−1 have slow Koff rates. Antibodies with Koff rates of approximately 8×10^−4 s^−1 or less have very slow Koff rates. Antibodies with Koff rates of approximately 9×10^−5 s^−1 or less have ultra slow Koff rates.
EphA2-Fc was immobilize to a surface on a CM5 sensorchip using a standard amine (70 μl of a 1:1 mix of NHS/EDC) coupling chemistry. Briefly, a 400 nM solution of EphA2-Fc in 10 mM NaOAc, pH4, was then injected over the activated surface to a density of 1000-1100 RU's. Unused reactive esters were subsequently “capped” with a 70 μl injection of 1M Et-NH2. Similarly, an activated and “capped” control surface was prepared on the same sensor chip without protein to serve as a reference surface.
A 250 μl injection of each of the EphA2 hybridoma supernatants was made over both the EphA2-Fc and control surfaces, and the binding responses were recorded. These supernatants were used undiluted. […]

[5] = system: MDA-MB-231 tumor cells; experiment: Inhibition of colony formation in soft agar; type: cell-based; settings: single dose 5 μg/ml purified antibody, FIG. 5
Protocol: A single dose of 5 μg/ml of Eph099B-208.261 (black bar), EA2 (white bar) purified EphA2 antibodies or a negative control antibody, 1A7 (gray bar) were incubated with malignant MDA-MB-231 tumor cells for the indicated time at 37° C. in soft agar. Results are reported as colonies per high-powered field (HPF).
Briefly, cells were suspended in soft agar for 7 days at 37° C. in the presence of purified antibody or control solution (PBS). Antibodies were administered at the time of suspension in both bottom and top agar solutions. Colony formation was scored microscopically using an Olympus CK-3 inverted phase-contrast microscope outfitted with a 40× objective. Clusters containing at least three cells were scored as a positive.

[6] = system: cancer cells; experiment: Elimination of cancer cell colonies already formed in soft agar (antibody added on third day); type: cell-based; settings: data not shown
Source text: Assay methods were similar to those described above except that antibodies were not added to the cancer cells until the third day of growth in soft agar.

[7] = system: A549 lung cancer cells; experiment: Tumor growth, A549 cells implanted subcutaneously into athymic mice; type: in vivo; settings: 6 mg/kg i.p. twice a week for 3 weeks; FIG. 7C
Protocol: Total tumor volume was determined after sacrifice.

[8] = target: T2, EphA2-Fc (human, UniProt P29317 24-537); experiment: competitive ELISA on EphA2-Fc, competitor labeled EA2
T2 construct: extracellular domain; also called fusion protein EphA2-Fc; not shown: human IgG1 constant region

[9] = system: MDA-MB-231 breast cancer cells; experiment: Tumor growth and survival, MDA-MB-231 cells implanted subcutaneously into athymic mice; settings: 6 mg/kg i.p. twice a week for 3 weeks vs PBS or 1A7; FIG. 7B, D
Protocol: MDA-MB-231 cells were implanted subcutaneously into athymic mice. […] Tumor growth was assessed and expressed as a ratio of the tumor volume divided by initial tumor volume (100 mm^3).
(D) MDA-MB-231 breast cancer cells were implanted subcutaneously into athymic mice. […] Total tumor volume was determined after sacrifice.
Briefly, 5×10^6 MDA-MB-231 breast cancer cells were implanted subcutaneously into athymic mice. […] Tumor growth was assessed and expressed as a ratio of the tumor volume divided by initial tumor volume (100 mm^3).
5×10^6 MDA-MB-231 breast cancer cells were implanted orthotopically or subcutaneously and 5×10^6 A549 lung cancer cells were implanted subcutaneously into athymic mice. […] Tumor growth was assessed and expressed either as a ratio of the tumor volume divided by initial tumor volume (100 mm^3) or as total tumor volume.

T1 sequence (P29317 24-537 limits assumed): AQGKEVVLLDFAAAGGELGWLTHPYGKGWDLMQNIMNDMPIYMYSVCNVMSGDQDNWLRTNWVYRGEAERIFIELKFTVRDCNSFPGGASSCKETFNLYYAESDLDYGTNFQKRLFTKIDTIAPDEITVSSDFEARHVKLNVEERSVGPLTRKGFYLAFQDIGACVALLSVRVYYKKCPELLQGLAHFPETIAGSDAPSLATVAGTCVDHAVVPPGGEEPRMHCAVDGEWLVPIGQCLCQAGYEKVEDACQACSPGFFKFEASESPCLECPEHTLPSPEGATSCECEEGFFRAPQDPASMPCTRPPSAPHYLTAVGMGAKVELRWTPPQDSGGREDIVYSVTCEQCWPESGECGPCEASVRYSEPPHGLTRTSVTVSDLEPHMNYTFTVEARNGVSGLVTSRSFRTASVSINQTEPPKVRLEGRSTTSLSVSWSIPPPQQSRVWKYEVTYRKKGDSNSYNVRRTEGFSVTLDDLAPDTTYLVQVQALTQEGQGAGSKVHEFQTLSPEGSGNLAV
Sequence of EphA2 (P29317 24-976): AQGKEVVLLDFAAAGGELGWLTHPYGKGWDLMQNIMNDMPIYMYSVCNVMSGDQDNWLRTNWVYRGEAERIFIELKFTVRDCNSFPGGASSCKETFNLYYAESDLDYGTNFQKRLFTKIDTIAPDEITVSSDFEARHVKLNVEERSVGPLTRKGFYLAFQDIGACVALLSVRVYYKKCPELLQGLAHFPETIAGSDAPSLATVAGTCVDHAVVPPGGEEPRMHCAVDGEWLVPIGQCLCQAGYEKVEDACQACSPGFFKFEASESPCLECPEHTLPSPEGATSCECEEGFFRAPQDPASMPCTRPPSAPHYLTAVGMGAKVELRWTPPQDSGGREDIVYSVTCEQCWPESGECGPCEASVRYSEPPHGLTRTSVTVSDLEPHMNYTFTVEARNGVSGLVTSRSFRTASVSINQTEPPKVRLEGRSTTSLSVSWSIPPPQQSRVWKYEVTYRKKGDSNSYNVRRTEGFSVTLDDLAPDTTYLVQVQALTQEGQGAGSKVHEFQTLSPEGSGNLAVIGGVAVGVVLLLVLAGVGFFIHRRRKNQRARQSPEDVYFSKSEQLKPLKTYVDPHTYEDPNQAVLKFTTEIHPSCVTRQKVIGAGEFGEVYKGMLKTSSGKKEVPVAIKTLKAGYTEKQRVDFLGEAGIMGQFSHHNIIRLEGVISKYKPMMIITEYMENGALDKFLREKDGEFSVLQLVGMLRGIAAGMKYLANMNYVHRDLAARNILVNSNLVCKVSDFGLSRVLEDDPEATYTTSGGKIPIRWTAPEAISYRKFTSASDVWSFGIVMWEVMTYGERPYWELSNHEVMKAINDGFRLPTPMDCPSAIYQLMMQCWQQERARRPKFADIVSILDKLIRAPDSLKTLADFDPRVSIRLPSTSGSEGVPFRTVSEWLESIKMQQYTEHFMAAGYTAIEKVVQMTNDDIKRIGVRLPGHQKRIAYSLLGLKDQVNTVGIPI
T2 sequence (P29317 24-537): as the sequence (P29317 24-537 limits assumed) above

B1: Eph099B-208.261 (antibody, V domains shown)
VH: QVQLQQPGAELVKPGASVKLSCKASGYTFTSYWMHWVKQRPGQGLEWIGMIHPNSGSTNYNEKFKSKATLTVDKSSSTAYMRLSSLTSEDSAVYYCARGGNMVGGGYWGQGTTLTVSS
VL: QIVLTQSPALMSASPGEKVTMTCSASSSVSYMYWYQQKPRSSPKPWIYLTTNLASGVPARFSGSGSGTSYSLTISSMEAEDAATYYCQQWSSNPFTFGSGTKLEIR
notes: Mouse (SJL) hybridoma monoclonal antibody, ATCC PTA-4573
Competition with labeled EA2 for binding to EphA2-Fc [1]: could decrease the amount of labeled EA2 binding to EphA2-Fc; also recorded: can compete with EA2 for binding to EphA2
EphA2 tyrosine phosphorylation [2]: increased EphA2 phosphorylation; also recorded: promote EphA2 tyrosine phosphorylation in MDA-MB-231 cells
EphA2 protein level (degradation) [3]: decreased EphA2 protein level; also recorded: promote EphA2 degradation in MDA-MB-231 cells
Koff rate compared with EA2 [4]: slower Koff rates than EA2
Colony growth / formation in soft agar [5]: inhibited colony growth in soft agar; also recorded: inhibit malignant tumor cell growth in soft agar
Effect on cancer cell colonies already formed in soft agar [6]: can kill cancer cells already growing in colonies in soft agar while other antibodies can slow or reduce cancer cell colony growth in soft agar
Tumor growth, A549 implanted subcutaneously [7]: inhibited
binding result [8]: binds
Tumor growth, MDA-MB-231 implanted subcutaneously [9]: inhibited; also recorded: inhibit tumor cell growth in vivo
